Consider 4 molecules from PMC12732646, “Peroxisome Proliferator-Activated Receptor α/δ/γ Activation Profile by Endogenous Long-Chain Fatty Acids” (International Journal of Molecular Sciences, 2025).

Conditions in all cases: both partners purified
The target in experiment [1] is T1, Human PPARγ-LBD (isoform 1; amino acids 203–477) (human, UniProt P37231-2 203-477).
T1 construct: numbers count on: isoform 1
T1 sequence (looked up): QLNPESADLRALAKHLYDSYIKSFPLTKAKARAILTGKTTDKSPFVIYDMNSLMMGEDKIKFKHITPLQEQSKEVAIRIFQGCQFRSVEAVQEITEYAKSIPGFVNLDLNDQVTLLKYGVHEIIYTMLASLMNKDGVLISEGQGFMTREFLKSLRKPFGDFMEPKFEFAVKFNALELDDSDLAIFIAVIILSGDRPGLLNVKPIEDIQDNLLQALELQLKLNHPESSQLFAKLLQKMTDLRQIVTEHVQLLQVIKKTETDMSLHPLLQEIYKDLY
As to the kind of experiment: FRET or BRET; same cell-free TR-FRET coactivator recruitment; with approved drug (pemafibrate for PPARα, seladelpar for PPARδ, pioglitazone for PPARγ), concentration series; response as percent of the maximal response with 1 µM GW full agonist. On the technique in general: Bioluminescence resonance energy transfer reports proximity on the nanometre scale.

For experiment [2], the target named is T2, Human PPARδ-LBD (amino acids 170–441) (human, UniProt Q03181 170-441).
T2 sequence (looked up): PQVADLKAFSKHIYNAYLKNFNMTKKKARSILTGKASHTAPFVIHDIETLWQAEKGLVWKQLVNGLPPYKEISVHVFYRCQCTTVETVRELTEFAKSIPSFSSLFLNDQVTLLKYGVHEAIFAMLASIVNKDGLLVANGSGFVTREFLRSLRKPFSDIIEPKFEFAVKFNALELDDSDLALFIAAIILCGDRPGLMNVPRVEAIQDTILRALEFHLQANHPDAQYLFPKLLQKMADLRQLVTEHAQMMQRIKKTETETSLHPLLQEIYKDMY
The description is as above.

In experiment [3] the target is T3, Human PPARα-LBD (amino acids 200–468) (human, UniProt Q07869 200-468).
T3 construct: source: delipidized with ethanol
T3 sequence (looked up): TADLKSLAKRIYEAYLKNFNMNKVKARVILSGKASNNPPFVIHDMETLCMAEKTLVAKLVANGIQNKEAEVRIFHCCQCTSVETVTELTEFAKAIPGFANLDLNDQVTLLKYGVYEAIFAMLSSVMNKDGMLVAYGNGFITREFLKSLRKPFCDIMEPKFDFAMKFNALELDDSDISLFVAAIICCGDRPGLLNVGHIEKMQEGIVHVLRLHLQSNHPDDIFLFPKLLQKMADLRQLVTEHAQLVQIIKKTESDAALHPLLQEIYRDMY
Described as above.

Experiment [4] concerns the target T1, Human PPARγ-LBD (isoform 1; amino acids …). The experiment can be described thus: FRET or BRET; cell-free TR-FRET coactivator recruitment; 6×His-LBD (9.5 µL of 400 nM) with Eu-W1024 anti-6×His antibody, biotin-labeled peptide (5 µL of 1 µM) with ULight-streptavidin; Buffer A (20 mM HEPES-NaOH pH 7.4, 150 mM NaCl, 1 mM EDTA, 0.005% Tween 20, 0.2% FA-free BSA); room temperature, 2 h; with synthetic full agonist (GW7647 for PPARα, GW501516 for PPARδ, GW1929 for PPARγ), concentration series; 665/620 ….

Ends that are not written are not given here.

B1: CBP coactivator peptide, AAs 56–80 (peptide)
peptide: SGNLVPDAASKHKQLSELLRGGSGS
modifications: also: biotin-labeled, position not given here
notes: source: synthetic peptide (GenScript)
With B1, the binding result in experiment [1], in experiment [2] and in experiment [3] was “binds” in each case.

B2: TRAP220 coactivator peptide, AAs 631–655 (peptide)
peptide: PVSSMAGNTKNHPMLMNLLKDNPAQ
modifications: also: biotin-labeled, position not given here
notes: Thyroid hormone receptor-associated protein 220, amino acids 631-655, holds an LXXLL motif (LMNLL); also called thyroid hormone receptor-associated protein 220 peptide; source: synthetic peptide (GenScript)
In the case of B2, the binding result in experiment [4], in experiment [2] and in experiment [3] was “binds” throughout.

B3: PGC1α coactivator peptide, AAs 137–155 (peptide)
peptide: EAEEPSLLKKLLLAPANTQ
modifications: also: biotin-labeled, position not given here
notes: as for B1
Regarding B3, in experiment [2], the binding result is recorded as “binds”.

B4: SRC1 coactivator peptide, AAs 676–700 (peptide)
peptide: CPSSHSSLTERHKILHRLLQEGSPS
modifications: also: biotin-labeled, position not given here
notes: as for B1
Take B4: the binding result in experiment [2] and in experiment [3] was “binds” throughout.
